Measured values published in IntAct's records for PubMed 35512704.

B1: Speckle-type POZ protein (Homo sapiens), O43791 (parent)
chain: MSRVPSPPPPAEMSSGPVAESWCYTQIKVVKFSYMWTINNFSFCREEMGEVIKSSTFSSGANDKLKWCLRVNPKGLDEESKDYLSLYLLLVSCPKSEVRAKFKFSILNAKGEETKAMESQRAYRFVQGKDWGFKKFIRRDFLLDEANGLLPDDKLTLFCEVSVVQDSVNISGQNTMNMVKVPECRLADELGGLWENSRFTDCCLCVAGQEFQAHKAILAARSPVFSAMFEHEMEESKKNRVEINDVEPEVFKEMMCFIYTGKAPNLDKMADDLLAAADKYALERLKVMCEDALCSNLSVENAAEILILADLHSADQLKTQAVDFINYHASDVLETSGWKSMVVSHPHLVAEAYRSLASAQCPFLGPPRKRLKQS

Variants of: B1
Conditions: with ezh1_human EZH1, Q92800

effect of a mutation on the interaction | Variant
with no effect | Y87C

Variants of: B1
Conditions: with ezh2_human EZH2, Q15910

effect of a mutation on the interaction | Variant
with no effect | Y87C

Variants of: B1
Conditions: with facd2_human FANCD2, Q9BXW9

effect of a mutation on the interaction | Variant
with no effect | Y87C

Variants of: B1
Conditions: with tnr6_human FAS

effect of a mutation on the interaction | Variant
with no effect | Y87C

Variants of: B1
Conditions: with fgf19_human FGF19, O95750
Sequence of fgf19_human FGF19, O95750 (O95750 whole entry): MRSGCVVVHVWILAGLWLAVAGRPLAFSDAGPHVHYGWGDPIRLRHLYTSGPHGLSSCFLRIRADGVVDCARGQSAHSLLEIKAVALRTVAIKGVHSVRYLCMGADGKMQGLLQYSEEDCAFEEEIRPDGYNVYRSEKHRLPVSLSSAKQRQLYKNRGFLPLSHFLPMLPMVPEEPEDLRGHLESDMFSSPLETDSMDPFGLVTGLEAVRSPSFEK

effect of a mutation on the interaction | Variant
with no effect | Y87C

Variants of: B1
Conditions: with fgfp1_human FGFBP1, Q14512

effect of a mutation on the interaction | Variant
with no effect | Y87C

Variants of: B1
Conditions: with fgfr4_human FGFR4, P22455

effect of a mutation on the interaction | Variant
with no effect | Y87C

Variants of: B1
Conditions: with fumh_human FH

effect of a mutation on the interaction | Variant
with no effect | Y87C

Variants of: B1
Conditions: with foxo3_human FOXO3, O43524

effect of a mutation on the interaction | Variant
with no effect | Y87C

Variants of: B1
Conditions: with fzr1_human FZR1, Q9UM11

effect of a mutation on the interaction | Variant
with no effect | Y87C

Variants of: B1
Conditions: with gbra6_human GABRA6, Q16445

effect of a mutation on the interaction | Variant
with no effect | Y87C

Variants of: B1
Conditions: with gata1_human GATA1, P15976

effect of a mutation on the interaction | Variant
with no effect | Y87C

Variants of: B1
Conditions: with p66b_human GATAD2B

effect of a mutation on the interaction | Variant
with no effect | Y87C

Variants of: B1
Conditions: with gna11_human GNA11, P29992
Sequence of gna11_human GNA11, P29992 (P29992 whole entry): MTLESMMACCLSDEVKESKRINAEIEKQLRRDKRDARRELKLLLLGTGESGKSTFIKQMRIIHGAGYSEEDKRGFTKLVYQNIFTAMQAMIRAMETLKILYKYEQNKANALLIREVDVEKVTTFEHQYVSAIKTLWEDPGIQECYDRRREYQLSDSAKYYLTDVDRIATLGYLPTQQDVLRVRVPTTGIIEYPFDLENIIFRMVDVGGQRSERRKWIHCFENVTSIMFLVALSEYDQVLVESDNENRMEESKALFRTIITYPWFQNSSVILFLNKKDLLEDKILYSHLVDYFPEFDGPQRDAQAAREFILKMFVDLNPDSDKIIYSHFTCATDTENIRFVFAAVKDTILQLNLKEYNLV

effect of a mutation on the interaction | Variant
with no effect | Y87C

Variants of: B1
Conditions: with gna13_human GNA13, Q14344

effect of a mutation on the interaction | Variant
with no effect | Y87C

Variants of: B1
Conditions: with gnaq_human GNAQ

effect of a mutation on the interaction | Variant
with no effect | Y87C

Variants of: B1
Conditions: with grm1_human GRM1, Q13255

effect of a mutation on the interaction | Variant
with no effect | Y87C

Variants of: B1
Conditions: with grm3_human GRM3, Q14832

effect of a mutation on the interaction | Variant
with no effect | Y87C

Variants of: B1
Conditions: with gsk3b_human GSK3B

effect of a mutation on the interaction | Variant
with no effect | Y87C

Variants of: B1
Conditions: with gtpb4_human GTPBP4, Q9BZE4

effect of a mutation on the interaction | Variant
with no effect | Y87C

Variants of: B1
Conditions: with h33_human H3-3A

effect of a mutation on the interaction | Variant
with no effect | Y87C

Variants of: B1
Conditions: with hdac1_human HDAC1, Q13547
Sequence of hdac1_human HDAC1, Q13547 (Q13547 whole entry): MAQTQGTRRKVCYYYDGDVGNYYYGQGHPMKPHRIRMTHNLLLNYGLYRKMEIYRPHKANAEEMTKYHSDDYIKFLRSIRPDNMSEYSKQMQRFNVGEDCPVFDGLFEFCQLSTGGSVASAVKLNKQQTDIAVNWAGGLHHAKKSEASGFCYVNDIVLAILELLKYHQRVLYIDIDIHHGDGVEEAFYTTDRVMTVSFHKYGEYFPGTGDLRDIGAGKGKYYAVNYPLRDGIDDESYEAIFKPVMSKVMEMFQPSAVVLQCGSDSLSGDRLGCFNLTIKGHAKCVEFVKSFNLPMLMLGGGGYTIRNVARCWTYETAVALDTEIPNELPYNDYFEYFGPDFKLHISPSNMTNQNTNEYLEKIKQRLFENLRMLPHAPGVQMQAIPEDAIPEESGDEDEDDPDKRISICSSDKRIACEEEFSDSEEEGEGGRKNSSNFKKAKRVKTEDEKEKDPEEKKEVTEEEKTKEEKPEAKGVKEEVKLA

effect of a mutation on the interaction | Variant
with no effect | Y87C

Variants of: B1
Conditions: with hdac3_human HDAC3, O15379

effect of a mutation on the interaction | Variant
with no effect | Y87C

Variants of: B1
Conditions: with hgf_human HGF

effect of a mutation on the interaction | Variant
with no effect | Y87C

Variants of: B1
Conditions: with h31_human H3C1, P68431

effect of a mutation on the interaction | Variant
with no effect | Y87C

Variants of: B1
Conditions: with hlab_human HLA-B

effect of a mutation on the interaction | Variant
with no effect | Y87C

Variants of: B1
Conditions: with hnf1a_human HNF1A

effect of a mutation on the interaction | Variant
with no effect | Y87C

Variants of: B1
Conditions: with igf1r_human IGF1R

effect of a mutation on the interaction | Variant
with no effect | Y87C

Variants of: B1
Conditions: with il7ra_human IL7R

effect of a mutation on the interaction | Variant
with no effect | Y87C

Variants of: B1
Conditions: with int12_human INTS12, Q96CB8

effect of a mutation on the interaction | Variant
with no effect | Y87C

Variants of: B1
Conditions: with ist1_human IST1, P53990

effect of a mutation on the interaction | Variant
with no effect | Y87C

Variants of: B1
Conditions: with jak1_human JAK1, P23458

effect of a mutation on the interaction | Variant
with no effect | Y87C

Variants of: B1
Conditions: with jak3_human JAK3, P52333

effect of a mutation on the interaction | Variant
with no effect | Y87C

Variants of: B1
Conditions: with kat2a_human KAT2A

effect of a mutation on the interaction | Variant
with no effect | Y87C

Variants of: B1
Conditions: with kdm5a_human KDM5A

effect of a mutation on the interaction | Variant
with no effect | Y87C

Variants of: B1
Conditions: with kdm5c_human KDM5C

effect of a mutation on the interaction | Variant
with no effect | Y87C

Variants of: B1
Conditions: with kdm6a_human KDM6A

effect of a mutation on the interaction | Variant
with no effect | Y87C

Variants of: B1
Conditions: with vgfr2_human KDR

effect of a mutation on the interaction | Variant
with no effect | Y87C

Variants of: B1
Conditions: with lims1_human LIMS1, P48059

effect of a mutation on the interaction | Variant
with no effect | Y87C

Variants of: B1
Conditions: with maga6_human MAGEA6, P43360

effect of a mutation on the interaction | Variant
with no effect | Y87C

Variants of: B1
Conditions: with m3k1_human MAP3K1, Q13233

effect of a mutation on the interaction | Variant
with no effect | Y87C

Variants of: B1
Conditions: with mk10_human MAPK10, P53779

effect of a mutation on the interaction | Variant
with no effect | Y87C

Variants of: B1
Conditions: with mk14_human MAPK14, Q16539
Sequence of mk14_human MAPK14, Q16539 (Q16539 whole entry): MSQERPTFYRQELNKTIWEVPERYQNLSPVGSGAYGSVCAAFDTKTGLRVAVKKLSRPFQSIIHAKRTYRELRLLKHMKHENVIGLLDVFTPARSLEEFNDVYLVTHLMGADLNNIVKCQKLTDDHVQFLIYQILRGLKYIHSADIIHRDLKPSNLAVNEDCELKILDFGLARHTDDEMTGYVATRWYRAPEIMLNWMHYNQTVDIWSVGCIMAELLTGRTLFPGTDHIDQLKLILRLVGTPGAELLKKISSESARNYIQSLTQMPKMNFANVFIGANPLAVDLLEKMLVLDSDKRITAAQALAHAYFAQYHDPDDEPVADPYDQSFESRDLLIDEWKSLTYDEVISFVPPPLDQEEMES

effect of a mutation on the interaction | Variant
with no effect | Y87C

Variants of: B1
Conditions: with mk03_human MAPK3, P27361

effect of a mutation on the interaction | Variant
with no effect | Y87C

Variants of: B1
Conditions: with mk04_human MAPK4, P31152
Sequence of mk04_human MAPK4, P31152 (P31152 whole entry): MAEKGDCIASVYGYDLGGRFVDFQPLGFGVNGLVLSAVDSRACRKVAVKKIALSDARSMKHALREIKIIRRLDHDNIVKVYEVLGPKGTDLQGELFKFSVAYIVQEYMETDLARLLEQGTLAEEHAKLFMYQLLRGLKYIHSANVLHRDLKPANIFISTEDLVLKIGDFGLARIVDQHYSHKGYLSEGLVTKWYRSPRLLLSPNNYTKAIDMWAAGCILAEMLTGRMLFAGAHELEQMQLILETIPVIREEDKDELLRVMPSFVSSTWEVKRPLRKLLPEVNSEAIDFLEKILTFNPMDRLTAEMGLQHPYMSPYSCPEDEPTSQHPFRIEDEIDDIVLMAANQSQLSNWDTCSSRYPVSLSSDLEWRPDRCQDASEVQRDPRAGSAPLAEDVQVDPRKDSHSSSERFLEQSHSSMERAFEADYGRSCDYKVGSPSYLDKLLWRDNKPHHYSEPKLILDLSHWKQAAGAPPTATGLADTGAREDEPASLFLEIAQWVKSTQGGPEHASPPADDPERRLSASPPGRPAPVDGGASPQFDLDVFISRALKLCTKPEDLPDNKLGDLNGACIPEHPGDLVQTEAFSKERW

effect of a mutation on the interaction | Variant
with no effect | Y87C

Variants of: B1
Conditions: with mk06_human MAPK6, Q16659
Sequence of mk06_human MAPK6, Q16659 (Q16659 whole entry): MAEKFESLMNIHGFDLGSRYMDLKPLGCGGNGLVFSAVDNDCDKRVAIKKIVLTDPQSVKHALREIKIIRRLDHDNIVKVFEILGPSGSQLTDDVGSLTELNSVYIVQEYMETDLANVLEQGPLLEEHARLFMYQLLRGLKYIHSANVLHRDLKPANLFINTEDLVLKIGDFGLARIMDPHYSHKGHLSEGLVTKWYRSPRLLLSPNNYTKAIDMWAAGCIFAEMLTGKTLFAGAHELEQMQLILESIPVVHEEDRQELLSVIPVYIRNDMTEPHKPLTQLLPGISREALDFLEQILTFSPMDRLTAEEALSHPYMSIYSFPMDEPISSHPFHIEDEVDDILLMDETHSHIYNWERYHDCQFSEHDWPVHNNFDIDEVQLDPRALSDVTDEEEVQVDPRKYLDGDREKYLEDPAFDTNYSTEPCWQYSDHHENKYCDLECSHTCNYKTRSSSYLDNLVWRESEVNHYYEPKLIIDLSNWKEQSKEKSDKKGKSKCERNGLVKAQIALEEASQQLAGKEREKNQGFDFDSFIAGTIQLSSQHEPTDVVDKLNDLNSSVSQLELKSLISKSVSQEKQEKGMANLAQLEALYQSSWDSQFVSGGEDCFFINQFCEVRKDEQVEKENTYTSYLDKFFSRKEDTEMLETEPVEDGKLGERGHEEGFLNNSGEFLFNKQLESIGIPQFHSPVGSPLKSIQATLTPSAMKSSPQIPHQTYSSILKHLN

effect of a mutation on the interaction | Variant
with no effect | Y87C

Variants of: B1
Conditions: with sin1_human MAPKAP1, Q9BPZ7
Sequence of sin1_human MAPKAP1, Q9BPZ7 (Q9BPZ7 whole entry): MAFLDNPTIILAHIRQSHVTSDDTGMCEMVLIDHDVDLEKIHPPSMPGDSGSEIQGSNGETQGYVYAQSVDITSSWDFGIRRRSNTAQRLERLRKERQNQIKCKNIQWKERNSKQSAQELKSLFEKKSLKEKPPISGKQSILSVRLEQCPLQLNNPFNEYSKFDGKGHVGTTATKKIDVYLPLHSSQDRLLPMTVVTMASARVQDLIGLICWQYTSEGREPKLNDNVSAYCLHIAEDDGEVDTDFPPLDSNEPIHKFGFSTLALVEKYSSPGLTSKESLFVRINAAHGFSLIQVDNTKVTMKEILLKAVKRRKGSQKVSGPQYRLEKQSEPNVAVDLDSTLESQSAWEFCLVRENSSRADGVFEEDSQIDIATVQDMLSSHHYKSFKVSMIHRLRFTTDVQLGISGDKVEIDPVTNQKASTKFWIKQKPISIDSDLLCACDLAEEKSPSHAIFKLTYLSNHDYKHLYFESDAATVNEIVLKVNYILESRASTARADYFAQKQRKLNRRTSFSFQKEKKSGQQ

effect of a mutation on the interaction | Variant
with no effect | Y87C

Variants of: B1
Conditions: with mcl1_human MCL1, Q07820
Sequence of mcl1_human MCL1, Q07820 (Q07820 whole entry): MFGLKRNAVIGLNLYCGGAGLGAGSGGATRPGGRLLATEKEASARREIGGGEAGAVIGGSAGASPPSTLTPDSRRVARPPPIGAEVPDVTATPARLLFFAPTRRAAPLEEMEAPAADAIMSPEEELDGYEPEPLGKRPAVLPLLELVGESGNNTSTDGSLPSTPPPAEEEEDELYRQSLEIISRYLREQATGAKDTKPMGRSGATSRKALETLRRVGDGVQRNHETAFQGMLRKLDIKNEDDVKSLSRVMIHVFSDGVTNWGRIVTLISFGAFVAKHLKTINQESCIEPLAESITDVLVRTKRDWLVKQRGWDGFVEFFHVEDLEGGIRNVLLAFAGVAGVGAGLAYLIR

effect of a mutation on the interaction | Variant
with no effect | Y87C

Variants of: B1
Conditions: with mdm2_human MDM2, Q00987

effect of a mutation on the interaction | Variant
with no effect | Y87C

Variants of: B1
Conditions: with mitf_human MITF

effect of a mutation on the interaction | Variant
with no effect | Y87C

Variants of: B1
Conditions: with mlh1_human MLH1, P40692

effect of a mutation on the interaction | Variant
with no effect | Y87C

Variants of: B1
Conditions: with mtor_human MTOR

effect of a mutation on the interaction | Variant
with no effect | Y87C

Variants of: B1
Conditions: with mybb_human MYBL2, P10244

effect of a mutation on the interaction | Variant
with no effect | Y87C

Variants of: B1
Conditions: with myc_human MYC

effect of a mutation on the interaction | Variant
with no effect | Y87C

Variants of: B1
Conditions: with mycn_human MYCN

effect of a mutation on the interaction | Variant
with no effect | Y87C

Variants of: B1
Conditions: with ncoa3_human NCOA3, Q9Y6Q9
Sequence of ncoa3_human NCOA3, Q9Y6Q9 (Q9Y6Q9 whole entry, looked up): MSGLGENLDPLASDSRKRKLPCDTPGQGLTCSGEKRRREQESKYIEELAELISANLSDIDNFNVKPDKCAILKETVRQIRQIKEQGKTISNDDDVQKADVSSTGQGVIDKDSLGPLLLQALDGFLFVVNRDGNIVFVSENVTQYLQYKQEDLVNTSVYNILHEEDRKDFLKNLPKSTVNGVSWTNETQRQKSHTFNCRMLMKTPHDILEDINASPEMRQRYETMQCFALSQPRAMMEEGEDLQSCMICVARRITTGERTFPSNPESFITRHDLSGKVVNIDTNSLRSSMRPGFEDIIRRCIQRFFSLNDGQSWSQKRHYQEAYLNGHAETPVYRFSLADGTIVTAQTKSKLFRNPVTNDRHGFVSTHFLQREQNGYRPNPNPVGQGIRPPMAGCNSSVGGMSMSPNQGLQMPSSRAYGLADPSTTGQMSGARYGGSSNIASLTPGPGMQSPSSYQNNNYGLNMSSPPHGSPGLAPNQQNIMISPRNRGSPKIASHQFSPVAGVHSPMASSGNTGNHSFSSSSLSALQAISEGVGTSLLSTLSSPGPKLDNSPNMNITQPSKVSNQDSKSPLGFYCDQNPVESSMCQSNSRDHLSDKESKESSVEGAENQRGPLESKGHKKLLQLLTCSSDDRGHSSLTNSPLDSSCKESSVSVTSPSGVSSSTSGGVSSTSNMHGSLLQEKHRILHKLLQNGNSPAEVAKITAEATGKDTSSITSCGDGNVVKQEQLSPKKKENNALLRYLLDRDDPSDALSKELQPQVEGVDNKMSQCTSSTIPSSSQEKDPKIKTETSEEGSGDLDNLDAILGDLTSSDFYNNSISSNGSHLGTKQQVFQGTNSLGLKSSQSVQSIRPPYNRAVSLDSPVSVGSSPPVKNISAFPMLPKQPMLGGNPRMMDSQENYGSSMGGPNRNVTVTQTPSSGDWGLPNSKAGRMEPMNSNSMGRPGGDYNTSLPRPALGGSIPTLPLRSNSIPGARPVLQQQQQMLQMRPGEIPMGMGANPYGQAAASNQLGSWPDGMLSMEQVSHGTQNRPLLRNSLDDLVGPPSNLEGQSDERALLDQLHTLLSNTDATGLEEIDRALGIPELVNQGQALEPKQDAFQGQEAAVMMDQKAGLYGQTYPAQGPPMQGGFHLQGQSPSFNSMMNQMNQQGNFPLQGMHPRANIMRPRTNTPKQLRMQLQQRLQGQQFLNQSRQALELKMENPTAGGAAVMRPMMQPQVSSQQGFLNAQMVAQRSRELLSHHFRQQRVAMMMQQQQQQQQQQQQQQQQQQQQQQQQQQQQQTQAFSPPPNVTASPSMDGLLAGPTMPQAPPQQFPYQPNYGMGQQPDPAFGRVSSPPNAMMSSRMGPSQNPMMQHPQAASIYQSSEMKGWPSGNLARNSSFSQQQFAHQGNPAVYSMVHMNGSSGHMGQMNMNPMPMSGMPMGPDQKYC

effect of a mutation on the interaction | Variant
with no effect | Y87C

Variants of: B1
Conditions: with merl_human NF2, P35240

effect of a mutation on the interaction | Variant
with no effect | Y87C

Variants of: B1
Conditions: with nfic_human NFIC

effect of a mutation on the interaction | Variant
with no effect | Y87C

Variants of: B1
Conditions: with ikba_human NFKBIA

effect of a mutation on the interaction | Variant
with no effect | Y87C

Variants of: B1
Conditions: with notc2_human NOTCH2, Q04721

effect of a mutation on the interaction | Variant
with no effect | Y87C
